Molecular target: the molecule itself
Assay: SDS-PAGE under non-reducing and reducing conditions with anti-Flag western blot; conditioned medium of transfected ExpiCHO-S cells; 15% SDS gels; covalent (disulfide-linked) dimer against monomer

B1: Flag-tagged mature ActE from Construct II (ligand, human, UniProt P58166 237-350, looked up)
chain: TPTCEPATPLCCRRDHYVDFQELGWRDWILQPEGYQLNYCSGQCPPHLAGSPGIAASFHSAVFSLLKANNPWPASTSCCVPTARRPLSLLYLDHNGNVVKTDVPDMVVEACGCS
notes: A233R lies in the furin site before the cut and is surmised not to stand in the mature chain; Furin processing was incomplete: the medium also holds singly and doubly unprocessed species and a smaller clipping product; also called Flag-ActE; ActE Construct II; source: ExpiCHO-S, transfected, conditioned medium (concentrated 20x); not shown: Flag, N-terminal, kept
  stoichiometry N: 2

Source: publication PMC11088876, “Activin E is a transforming growth factor β ligand that signals specifically through activin receptor-like kinase 7” (Biochemical Journal, 2024)
